Assay results as given in patent publication US11708423B2, “Chimeric engulfment receptor molecules and methods of use” (CERO THERAPEUTICS, INC., priority 2017, dated 2023).

B1: CER126: Tim4 binding and transmembrane domains, TLR2 primary and TRAF2 secondary signaling domains; SEQ ID NO:174 (protein)
chain: MSKGLLLLWLVTELWWLYLTPAASEDTIIGFLGQPVTLPCHYLSWSQSRNSMCWGKGSCPNSKCNAELLRTDGTRIISRKSTKYTLLGKVQFGEVSLTISNTNRGDSGVYCCRIEVPGWFNDVKKNVRLELRRATTTKKPTTTTRPTTTPYVTTTTPELLPTTVMTTSVLPTTTPPQTLATTAFSTAVTTCPSTTPGSFSQETTKGSAFTTESETLPASNHSQRSMMTISTDIAVLRPTGSNPGILPSTSQLTTQKTTLTTSESLQKTTKSHQINSRQTILIIACCVGFVLMVLLFLAFLHRFHGLWYMKMMWAWLQAKRKPRKAPSRNICYDAFVSYSERDAYWVENLMVQELENFNPPFKLCLHKRDFIPGKWIIDNIIDSIEKSHKTVFVLSENFVKSEWCKYELDFSHFRLFDENNDAAILILLEPIEKKAIPQRFCKLRKIMNTKTYLEWPMDEAQREGFWVNLRAAIKSMAAASVTPPGSLELLQPGFSKTLLGTKLEAKYLCSACRNVLRRPFQAQCGHRYCSFCLASILSSGPQNCAACVHEGIYEEGISILESSSAFPDNAARREVESLPAVCPSDGCTWKGTLKEYESCHEGRCPLMLTECPACKGLVRLGEKERHLEHECPERSLSCRHCRAPCCGADVKAHHEVCPKFPLTCDGCGKKKIPREKFQDHVKTCGKCRVPCRFHAIGCLETVEGEKQQEHEVQWLREHLAMLLSSVLEAKPLLGDQSHAGSELLQRCESLEKKTATFENIVCVLNREVERVAMTAEAC
modifications: CER126 protein
B2: CER122: Tim4 binding and transmembrane domains, TLR2 primary and DAP12 secondary signaling domains; SEQ ID NO:149 (protein)
chain: MSKGLLLLWLVTELWWLYLTPAASEDTIIGFLGQPVTLPCHYLSWSQSRNSMCWGKGSCPNSKCNAELLRTDGTRIISRKSTKYTLLGKVQFGEVSLTISNTNRGDSGVYCCRIEVPGWFNDVKKNVRLELRRATTTKKPTTTTRPTTTPYVTTTTPELLPTTVMTTSVLPTTTPPQTLATTAFSTAVTTCPSTTPGSFSQETTKGSAFTTESETLPASNHSQRSMMTISTDIAVLRPTGSNPGILPSTSQLTTQKTTLTTSESLQKTTKSHQINSRQTILIIACCVGFVLMVLLFLAFLHRFHGLWYMKMMWAWLQAKRKPRKAPSRNICYDAFVSYSERDAYWVENLMVQELENFNPPFKLCLHKRDFIPGKWIIDNIIDSIEKSHKTVFVLSENFVKSEWCKYELDFSHFRLFDENNDAAILILLEPIEKKAIPQRFCKLRKIMNTKTYLEWPMDEAQREGFWVNLRAAIKSYFLGRLVPRGRGAAEAATRKQRITETESPYQELQGQRSDVYSDLNTQRPYYK
modifications: CER122 protein
B3: CER123: Tim4 binding and transmembrane domains, TLR2 primary and TRAF6 secondary signaling domains; SEQ ID NO:150 (protein)
chain: MSKGLLLLWLVTELWWLYLTPAASEDTIIGFLGQPVTLPCHYLSWSQSRNSMCWGKGSCPNSKCNAELLRTDGTRIISRKSTKYTLLGKVQFGEVSLTISNTNRGDSGVYCCRIEVPGWFNDVKKNVRLELRRATTTKKPTTTTRPTTTPYVTTTTPELLPTTVMTTSVLPTTTPPQTLATTAFSTAVTTCPSTTPGSFSQETTKGSAFTTESETLPASNHSQRSMMTISTDIAVLRPTGSNPGILPSTSQLTTQKTTLTTSESLQKTTKSHQINSRQTILIIACCVGFVLMVLLFLAFLHRFHGLWYMKMMWAWLQAKRKPRKAPSRNICYDAFVSYSERDAYWVENLMVQELENFNPPFKLCLHKRDFIPGKWIIDNIIDSIEKSHKTVFVLSENFVKSEWCKYELDFSHFRLFDENNDAAILILLEPIEKKAIPQRFCKLRKIMNTKTYLEWPMDEAQREGFWVNLRAAIKSMSLLNCENSCGSSQSESDCCVAMASSCSAVTKDDSVGGTASTGNLSSSFMEEIQGYDVEFDPPLESKYECPICLMALREAVQTPCGHRFCKACIIKSIRDAGHKCPVDNEILLENQLFPDNFAKREILSLMVKCPNEGCLHKMELRHLEDHQAHCEFALMDCPQCQRPFQKFHINIHILKDCPRRQVSCDNCAASMAFEDKEIHDQNCPLANVICEYCNTILIREQMPNHYDLDCPTAPIPCTFSTFGCHEKMQRNHLARHLQENTQSHMRMLA
modifications: CER123 protein

Legend:
H1975 NSCLC cells = assay: LDH-based cytotoxicity, H1975 cells, 18 hours co-culture; format: cell-based; details: Osimeritinib 0, 500, 1000 nM, E:T 2:1 or 5:1
Method: H1975 NSCLC cells were co-cultured with CER123- or CER126-expressing CD4+ T cells with increasing concentrations of Osimeritnib (0, 500 nM, or 1000 nM). Mock-transduced (vector only) T cells were used as control. Assays were performed using CER modified T cells purified by FACS using an EGFR specific antibody 7 days after activation using CD3 & CD28 microbeads. CER modified T cells and H1975 cells were co-cultured at effector:target cell ratios of 2:1 or 5:1. After 18 hours of co-culture, bulk supernatants were evaluated using LDH-based cytotoxicity assay.

SCC152 cells = assay: Magnitude breadth of phagocytosis by CER-transduced CD4+ T cells; format: cell-based, human; details: CD4+ T cells
Method: Various CER-modified CD4+ T cells were also evaluated for breadth of response to determine whether a particular CER confers a broad phagocytic response of low magnitude (e.g., 10% engulfment in 90% of cells) or a less frequent but strong phagocytic response (e.g., 90% engulfment in 10% of cells) in the host cells. CD8+ T cells were transduced with HPV16 E7 specific TCR as described in Example 5. CD4+ T cells were transduced with lentiviral vectors comprising a CER21, CER27, CER104, CER116, or CER117 nucleic acid. Mock-transduced (vector alone) CD4+ T cell were used as control. CD4+/CER+ and CD8+/E7 TCR+ T cells were stained with CELLTRACE violet. […] HPV16 E7 TCR transduced CD8+ T cells and selected CER transduced CD4+ T cells were mixed at a 1:1 ratio and co-cultured with SCC152 cells at a 1:1 ratio for 8 hours. Phagocytosis of target SCC152 cells by CER-transduced CD4+ T cells was analyzed by fluorescence microscopy. […] The horizontal axis represents the % area of CER-transduced CD4+ T cells having engulfment or % area of […]. This measure was rarely above 40% across CER types tested. The vertical axis represents the proportion of CER-transduced CD4+ T cells that were phagocytic. For CER104, about 20% of CER104-transduced CD4+ T cells have more than 10% engulfment. For CER117-transduced CD4+ T cells, less than 10% have more than 10% engulfment.

[1] = test system: H1975 lung adenocarcinoma cells; assay: MTT viability of H1975 cells co-cultured with CER T cells and Osimeritinib; format: cell-based; details: for growth/viability of H1975 cells (MTT): Osimeritinib 250, 500, 1000 nM, CD4+ T cells, E:T 1:1, 2:1, 5:1, 48 hours
Text: H1975 lung adenocarcinoma cells harboring an EGFR mutation were co-cultured with CER123- or CER126-modified or Mock-transduced (vector only) CD4+ T cells with increasing concentrations of Osimeritinib. CER123 has a polypeptide sequence as set forth in SEQ ID NO:150 and comprises a Tim4 binding domain, Tim4 transmembrane domain, and an engulfment signaling domain comprising a primary engulfment signaling domain comprising a TLR2 signaling domain and a secondary engulfment signaling domain comprising a TRAF6 signaling domain. CER126 has a polypeptide sequence as set forth in SEQ ID NO:174 and comprises a Tim4 binding domain, Tim4 transmembrane domain, and an engulfment signaling domain comprising a primary engulfment signaling domain comprising a TLR2 signaling domain and a secondary engulfment signaling domain comprising a TRAF2 signaling domain. CD4 T cells were transduced with a lentiviral vector comprising CER123 or CER126 nucleic acid and truncated EGFR (transduction marker) nucleic acid. Assays were performed using CER modified T cells purified by FACS using an EGFR specific antibody 7 days after activation using CD3 & CD28 microbeads. CER modified T cells and H1975 cells were co-cultured at effector:target cell ratio (E:T) of 1:1, 2:1, or 5:1. After 48 hours of co-culture in the presence of Osimeritinib (0, 250 nM, 500 nM, or 1000 nM), T cells were washed away, and the number of viable H1975 cells were quantified using a calorimetric MTT assay. Cell viability experiments were performed in triplicate and presented as % of control (FIG. 45A).

[2] = test system: A549 ALK+Luciferase+ cells; assay: Adoptive transfer of CER T cells with ALK inhibitor in A549 ALK+ xenograft; format: in vivo, immunodeficient (NSG) mice; details: Alectinib 15 mg/kg intraperitoneally + 10e6 CER-transduced human T cells, NSG mice
Method: The combination of CER therapy and ALK inhibitor therapy was also evaluated in vivo. […] A549 ALK+Luciferase^+ cells were engrafted into immunodeficient (NSG) mice 21 days prior to initiation of study and evaluated for engraftment by bioluminescent emission and tumor volume seven days later. […] Animals received 10 μg of systemic IL-2 every 24 hours×3 days following cell infusion and then monitored for tumor progression and cell expansion and persistence thereafter.
Peripheral blood sample was stained with anti-human CD45-APC-conjugated antibody 8 days following cell infusion. Each FACS plot indicates a single animal. A bar graph depicting frequency of human CD45+ cells/μL of peripheral blood at days 4, 8, 16, and 25 post-adoptive transfer of CER122+ T cells (FIG. 77B). Peripheral blood was obtained by retro-orbital bleeding and examined for evidence of T cell engraftment by FACS. The frequency of human-CD45 cells/μL of peripheral blood was determined by FACs using TRUCOUNT (BD Biosciences) beads.

Row | Molecule | cell killing of H1975 cells (LDH) (H1975 NSCLC cells) | engulfment of SCC152 target cells (fluorescent micrograph) (SCC152 cells) | bright field images of H1975 co-culture ([1]; Osimeritinib 500 nM, vs control T cells (vector alone)) | growth/viability of H1975 cells (MTT) [1] | anti-tumor response (tumor volume, bioluminescence) [2]
1 | B1 | inducible cell killing responses | SCC152 target cells engulfed | loss of H1975 cells | synergistically suppressed | –
2 | B2 | – | – | – | – | enhanced anti-tumor response to ALK+NSCLC in vivo
3 | B3 | inducible cell killing responses | – | – | synergistically suppressed | –
